In test [1] the target is Stingin-1. The experiment in a line: SPR.
In test [2] the target is Stingin-2. Kind of test: SPR.
In test [3] the target is Stingin-4. Kind of test: SPR competition.

B1: MDM2 25-109 (protein)
chain: ETLVRPKPLLLKLLKSVGAQKDTYTMKEVLFYLGQYIMTKRLYDEKQQHIVYCSNDLLGDLFGVPSFSVKEHRKIYTMIYRNLVV
With B1, the Kd in test [1] was found to be 25.1 nM; in test [2], 35.2 nM.

B2: MDMX 24-108 (protein)
chain: INQVRPKLPLLKILHAAGAQGEMFTVKEVMHYLGQYIMVKQLYDQQEQHMVYCGGDLLGELLGRQSFSVKDPSPLYDMLRKNLVT
As to B2, the values for the dissociation constant Kd in test [1], in test [2] and in test [3] were 11.4 nM, 18 nM and 252 nM, respectively.
